Test results reported in patent US8624002B2, “Prostaglandin E2 binding proteins and uses thereof” (AbbVie, Inc., priority 2008, dated 2014).

B1: L21: human anti-PGE2 antibody from PROfusion mRNA display; VH SEQ ID NO 33, VL SEQ ID NO 36 (antibody, V domains shown)
VH: EVQLVQSGSELKKPGTSVKVSCKASGYTLTTYAMNWVRQAPGQGLEWMGWIGTSTGNPTYAQGFTGRFVFSLDTSVNTAHLQIYSLKAEDTALYYCARSSLTRPADYWGQGTLVTVSS
VL: QSGLTQPPSVSGAPGQRVTISCFGSSSNIGAGYDVHWYQQLPGAAPKLLIFGNNNRPSGVPDRFSGSKSGTSASLAITGLQAEDEADYYCQSCDSSLSGAVFGTGTKVTVL
B2: K3A: human anti-PGE2 antibody from PROfusion mRNA display; VH SEQ ID NO 13, VL SEQ ID NO 17 (antibody, V domains shown)
VH: EVQLVQSGAETKKPGASVEVSCKASGYSFTEYGISWVRQAPGQGPEWMGCISPYNGKLHYAQEFQGRVTMTTGTSTNTAYMELGSLRSDDTAVYYCARGGFSFYDSSGYYYVTDHWGQGTLVTVSS
VL: DIRLTQSPSSLSASVGDRVTITCRASQSIGSYLNWYQQKSGKAPKLLIYAASKLQSGVPSRFSGSGFGTDFTLTISSLQPEDSATYYCQQSDTTPFTFGQGTKLEIKR
B3: K1B: human anti-PGE2 antibody from PROfusion mRNA display; VH SEQ ID NO 5, VL SEQ ID NO 9 (antibody, V domains shown)
VH: EVQLVQSGAEVKRPGASVKVSCKTSGYTFTNYDINWVRLAPGQGLEWMGCMNPTTGKTGYAQKFQGRVTMTRDTTIATAYMELSRLTSEDTAVYYCARGRGYSPGYGVAYADYWGQGTLVTVSS
VL: DIQLTQSPSSLPASVGDRVTITCRASQSISTYLNWYQQTPGKAPSLLIYAASSLQSGVPSRFSGSGSGTDFTLTISSLQPEDFATYYCQQSYSPPPTFGGGTKVEIKR
B4: K7H: human anti-PGE2 antibody from PROfusion mRNA display; VH SEQ ID NO 21, VL SEQ ID NO 24 (antibody, V domains shown)
VH: EVQLVQSGSELKKPGASVKVSCKASGYSFTEYGISWVRQAPGQGPEWMGCISPYNGKLHYAQKFLGRVTMTTDTSTNTAYMELRSLKSDDTAVYYCARGGFSSYDSSGYYYVTDHWGQGTLVTVSS
VL: DIRLTQSPSSLPASVGDRVTITCRASQSISTYLNWYQQTPGKAPSLLIYAASSLQSGVPSRFSGSGSGTDFTLTISSLQPEDFATYYCQQSYSPPPTFGGGTKVEIKR
B5: L11: human anti-PGE2 antibody from PROfusion mRNA display; VH SEQ ID NO 25, VL SEQ ID NO 29 (antibody, V domains shown)
VH: EVQLVQSGPELKKPGTSVKVSCKASGYTLTTYAMNWVRQAPGQGLEWMGWIDTSTGNPTYAPGFLGRFVFSLDTSLSTTYLQISSLKPDDTAVYYCARSSHTRPGDFWGQGTLVTVSS
VL: QSGLTQPPSVSGTPGQRVTISCSGSESNVGTNSVNWYQQLPGAAPRLLIRGNSDRPSGVPDRFSASKSGTSASLAISRLQSEDEADYFCGACDGRLSGLYVFGTGTKVTVL
B6: 2B5-7.0: recombinant anti-PGE2 antibody from solved 2B5 sequence; VH SEQ ID NO 40, VL SEQ ID NO 41 (antibody, V domains shown)
VH: QVQLQQSGPELVRPGSSVKISCKASGYTFTKYWLGWVKQRPGHGLEWIGDIYPGYDYTHYNEKFKDKATLTVDTSSSTAYMQLSSLTSEDSAVYFCARSDGSSTYWGQGTLVTVSA
VL: DVLMTQTPLSLPVSLGDQASISCTSSQNIVHSNGNTYLEWYLQRPGQSPKLLIYKVSNRFSGVPDRFSGSGSGTVFTLKISRVEAEDLGVYYCFQVSHVPYTFGGGTKLEIKR
B7: 2B5-9.0: recombinant anti-PGE2 antibody from solved 2B5 sequence; VH SEQ ID NO 44, VL SEQ ID NO 45 (antibody, V domains shown)
VH: QVQLQQSGPELVRPGSSVKISCKASGYTFTKYWLGWVKQRPGHGLEWIGDIYPYGDYTHYNEKFKDKATLTVDTSSSTAYMQLSSLTSEDSAVYFCARSDGSSTYWGQGTLVTVSA
VL: DVLMTQTPLSLPVSLGDQASISCTSSQNIVHSNGNTYLEWYLQRPGQSPKLLIYKVSNRFSGVPDRFSGSGSGTVFTLKISRVEAEDLGVYYCFQVSHVPYTFGGGTKLEIKR

Experiments:
[1] = Biotin-PGE2 ELISA (PGE2-biotinamide binding to captured IgG)
Description: Enzyme linked immunosorbent assays to screen for antibodies that bind prostaglandin E2 were performed according to at least one of the two following methods.
ELISA plates (Costar 3369, Corning, N.Y.) were coated with 50 μl of anti-host Fc IgG (Sigma, St. Louis, Mo.) at 2 μg/ml in PBS (Invitrogen Carlsbad, Calif.). Following an overnight incubation at 4° C., washed with PBS and the plate was blocked with 200 μl Superblock (Pierce #37535, Rockford, Ill.). The IgG containing samples were diluted to 1 μg/ml in Assay Buffer (10% Superblock in PBS containing 0.05% Surfactamps (Pierce #37535, Rockford, Ill.) and 50 μl/well added to each well and incubated for 1 hour at room temperature. Plates were washed four times with Tween-Tris Buffered Solution (TTBS). […] The titration curve samples were added to each IgG sample at 50 μl/well and incubated for 1 hour at room temperature. The plates were washed as previously described and 50 μl of 1:5000 dilution of streptavidin polyhrp40 (Fitzgerald Industries, Concord, Mass.) in Assay Buffer was added to each well and incubated for 45 minutes at room temperature. A final wash step was performed and the plates were developed using a single step TMB system (Sigma #T8665, St. Louis, Mo.) and 100 μl/well 2N H2SO4. Plates were read at 450 nm on a Molecular Devices Spectramax plate reader (Sunnyvale, Calif.). EC50 was determined using GraphPad Prism 5 (GraphPad Software, La Jolla, Calif.).

[2] = Biotin-PGE2 competition ELISA (prostaglandin selectivity); assay type: binding
Description: Competition enzyme linked immunosorbent assays were performed to determine prostaglandin binding specificity for antibodies that bind prostaglandin E2, according to at least one of the two following methods.
ELISA plates (Costar 3369, Corning, N.Y.) were coated with 50 μl/well of anti-host Fc IgG (Sigma, St. Louis, Mo.) at 2 μg/ml in PBS (Invitrogen, Carlsbad, Calif.). Following an overnight incubation at 4° C., the plate was blocked with 200 μl Superblock (Pierce #37535, Rockford, Ill.). The IgG samples were diluted to 6 μg/ml in Assay Buffer (10% Superblock in PBS containing 0.05% Surfactamps (Pierce #37535, Rockford, Ill.). The PGE2-biotinamide was diluted to 3 nM in Assay Buffer. A titration curve in Assay Buffer was prepared for the prostaglandins PGA2 (Cayman Chemicals, Ann Arbor, Mich.), PGD2 (Cayman Chemicals, Ann Arbor, Mich.) and PGE2 (Cayman Chemicals, Ann Arbor, Mich.) starting at 300 nM by a 1:10 serial dilution. The reagents were added to tubes at a volume of 50 μl each/tube and preincubated for 1 hour at room temperature. Following the preincubation, the mix was transferred to the blocked plates and allowed to incubate for 1 hour at room temperature. Next, the plates were washed four times with Tween 20-Tris buffered solution (TTBS). Streptavidin polyhrp40 in Assay Buffer (Fitzgerald Industries, Concord, Mass.) at a 1:5000 dilution was then added to the wells and incubated for 45 minutes at room temperature. A final wash step was performed and the plates were developed using a single step TMB system (Sigma #T8665, Sigma, St. Louis, Mo.) and 100 μl/well 2N H2SO4. Plates were read at 450 nm on a Molecular Devices Spectramax plate reader (Sunnyvale, Calif.). […] IC50 number was determined using GraphPad Prism 5 (GraphPad Software, La Jolla, Calif.). The cross reactivity index was then calculated by IC50 of PGE2/IC50 of other prostaglandin(s).

[3] = Biotin-PGE2 45 μM, IgG-containing COS7 media

Row | Molecule | Binding to PGE2-Biotinamide (OD450) ([1]; Biotin-PGE2 0 μM) | Binding to PGE2-Biotinamide (OD450) ([1]; Biotin-PGE2 0.1 μM) | Binding to PGE2-Biotinamide (OD450) ([1]; Biotin-PGE2 0.3 μM) | Binding to PGE2-Biotinamide (OD450) ([1]; Biotin-PGE2 1 μM) | Binding to PGE2-Biotinamide (OD450) ([1]; Biotin-PGE2 2 μM) | Binding to PGE2-Biotinamide (OD450) ([1]; Biotin-PGE2 5 μM) | Binding to PGE2-Biotinamide (OD450) ([1]; Biotin-PGE2 15 μM) | Binding to PGE2-Biotinamide (OD450) [1, 3] | EC50 [1] [nM] | ability to bind PGE2 in ELISA [1] | PG Selectivity in Biotin-PGE2 Competition ELISA (CRI %) PGA2 [2] [%] | PG Selectivity in Biotin-PGE2 Competition ELISA (CRI %) PGD2 [2] [%] | PG Selectivity in Biotin-PGE2 Competition ELISA (CRI %) PGE1 [2] [%]
1 | B1 | 0.08 | 0.10 | 0.16 | 0.25 | 0.32 | 0.31 | 0.41 | 0.46 |  |  |  |  | 
2 | B2 | 0.11 | 0.22 | 0.34 | 0.51 | 0.61 | 0.67 | 0.78 | 0.58 |  |  |  |  | 
3 | B3 | 0.07 | 0.13 | 0.21 | 0.29 | 0.27 | 0.67 | 0.82 | 0.88 |  |  |  |  | 
4 | B4 | 0.04 | 0.03 | 0.04 | 0.06 | 0.10 | 0.13 | 0.29 | 0.24 |  |  |  |  | 
5 | B5 | 0.04 | 0.04 | 0.04 | 0.05 | 0.07 | 0.07 | 0.07 | 0.07 |  |  |  |  | 
6 | B6 |  |  |  |  |  |  |  |  | 2.46 | potently bound to PGE2 | 0.11 | <0.01 | 27
7 | B7 |  |  |  |  |  |  |  |  | 3.04 | potently bound to PGE2 | 0.24 | <0.01 | 23
